The supplement of paper PMC9170038

Test system: MS2 coat protein
Assay: apparent KD of MS2 coat protein; designed switch direction (-1 OFF switch, 1 ON switch): -1; higher = weaker reporter binding
Outline: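 Designed RNA switches were transcribed on Illumina chips by stalled E. coli RNA polymerase and titrated with SNAP-549-labelled MS2 coat protein from 0.7 or 1.5 nM, doubling to 3 µM. Step length ran from 0.8–1.5 h at the lowest concentration to 10–20 min at the highest. The apparent KD is the median over clusters for each design, from curve-fitted normalised cluster fluorescence.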

[1] = Eterna round: R95, input ligand: microRNA oligo, concentration not stated
[2] = input ligand: microRNA oligo, concentration not stated
[3] = Eterna round: R95, input ligand: FMN 200 uM
[4] = Eterna round: R95, input ligand: none

Sequence	apparent KD of MS2 coat protein (input ligand: FMN 200 uM)	apparent KD of MS2 coat protein (input ligand: none)	apparent KD of MS2 coat protein [1]	apparent KD of MS2 coat protein [2]	other results
UAUUAGCAAGUGAGAUCCCACAUGAGGAUCACCCAUGUGCUCGUCUUAUAAGGUACUGUGACGAAAGUCACGGUACC [Sensor 3, v1 - 91 v1] (Eterna round: R97, puzzle: Sensor, turn-off variant 1)	56.2 nM	47.6 nM	–	–	–
UAUUAGCAAGUGAGAUCCGACAUGAGGAUCACCCAUGUGCUCGUCUUAUAAGGUACUGUGACAAAAGUCACGGUACC [Elimod 2 - Jieux - Sensor, turn-off variant 1] (Eterna round: R97, puzzle: Sensor, turn-off variant 1)	200 nM	283 nM	–	–	–
UAUUAUUGCAAGGAUAUGCUUUUUAUUUCUUUUGCAGAAGGUGCAACAUGAGGAUCACCCAUGUUUCCGGGUAU [JR_E6_Sub033] (puzzle: Exclusion 6)	–	–	20.4 nM	–	–
UAUUUAAUUAACAAGCUUUACAUGAGGAUCACCCAUGUGAUCAUGCUCGUCUUAUAAUUAAUUAAUUAAUUAAUUAA [Stov1/6-A2] (Eterna round: R97, puzzle: Sensor, turn-off variant 1)	51.6 nM	62.8 nM	–	–	–
UAUUUAGCAAGCAGAUCCCACAUGAGGAUCACCCAUGUUUUCUGAAAAUAAAUUAAAAUAGCUGAAGCUCGUCUUAU [Winner reversed engineered 38] (Eterna round: R97, puzzle: Sensor, turn-off variant 1)	139 nM	137 nM	–	–	–
UAUUUAUAUGAAGGAUAUACUUAACAUGAGGAUCACCCAUGUGGUGUUGUGAGUGAGUGAGUUUAGUAGAAGGUCAAUGAUUUU [JMF's solution 74] (Eterna round: R96, puzzle: Exclusion NG 2)	870 nM	311 nM	–	286 nM	–
UCAACGCAAGGAUAUACUUGCGGUGAUGUUCGAAUUCUUCUACUUGAGGAUCACCCAAGUAGAAGGUGCGAUGA [jl-ex2.4.62 ViennaUCT mod] (Eterna round: R97, puzzle: Exclusion 2)	12.5 nM	13.4 nM	–	–	–
UCAAUUUUGCGAGGAUAUCGACCAUUCCUCUUUACAUGAGGAUCACCCAUGUACUUAUUCUACAACGAGAAGGCGCUCAUAGUU [JR_ExcNG2_Sub064] (Eterna round: R96, puzzle: Exclusion NG 2)	–	–	–	30 nM	–
UCAAUUUUGCGAGGAUAUCGACCAUUCCUCUUUACAUGAGGAUCACCCAUGUUCUUUUUCUACAACGAGAAGGCGCUCAUAGUU [JR_ExcNG2_Sub063] (Eterna round: R96, puzzle: Exclusion NG 2)	–	–	–	56.2 nM	–
UCACGGGACUAAGGAUAUAUGAGAGCCAUUAACAUAGAAGGUAGAAUGUUAGAUCAUAAACUAAACAUGAGGAUCACCCAUGUU [JR_ExcNG1_Sub093] (Eterna round: R96, puzzle: Exclusion NG 1)	19.6 nM	23.2 nM	–	20.2 nM	–
UCACGGGACUGAGGAUAUACAUGAACCAUGUUUGUAGAAGGCAGAAGGUUUGAUCAUACACUAAACAUGAGGAUCACCCAUGUU [JR_ExcNG1_Sub027] (Eterna round: R96, puzzle: Exclusion NG 1)	21.1 nM	25.1 nM	–	15.1 nM	–
UCACGGGAUUGAGGAUAUAUAUUAAUUUUUACAAUAGAAGGCAAAUUGUUAGAUUAUUCACUAUACAUGAGGAUCACCCAUGUU [JR_ExcBG1_Sub078] (Eterna round: R96, puzzle: Exclusion NG 1)	–	–	–	17.6 nM	–
UCACGGGAUUGAGGAUAUAUAUUAAUUUUUUUUAUAGAAGGCAAAAUGUUAGAUUAUUCACUAUACAUGAGGAUCACCCAUGUU [JR_ExcBG1_Sub076] (Eterna round: R96, puzzle: Exclusion NG 1)	–	–	–	18.2 nM	–
UCACGGGUUUGAGGAUAUAUAUUUAUUAUUUUAAUAGAAGGCAAAGAGAUAGUUUUUUCACUAUACAUGAGGAUCACCCAUGUU [JR_ExcNG1_Sub087] (Eterna round: R96, puzzle: Exclusion NG 1)	–	–	–	27.6 nM	–
UCACGUACAGGAUAUACAUGAGGAUCACCCAUGUGCUCGAAGGCACGCCCGAGAUUCUGUAGAAGGGUAUAGCA [Eternabot (L1) Solution 50] (Eterna round: R97, puzzle: Exclusion 3)	38.4 nM	32.5 nM	–	–	–
UCAUAACAUGAGGAUCACCCAUGUGAGGAUAUGAUACUAUGUACUUCGGUACAUAGUAUCAGAAGGCGCAUACU [Brourd's Ex1-3: 11 (nt 68 G)] (puzzle: Exclusion 1)	–	–	55.2 nM	–	apparent KD of MS2 coat protein [3]: 115 nM; apparent KD of MS2 coat protein [4]: 49.1 nM
UCAUACGAUGAGGAUAUCUCAGUUAAAGUAUUUAGAGAAGGCGUUACAUGAGGAUCACCCAUGUUUAUGGGCAU [Ex-6 Malc#7] (puzzle: Exclusion 6)	–	–	121 nM	–	apparent KD of MS2 coat protein [3]: 178 nM; apparent KD of MS2 coat protein [4]: 190 nM
UCAUACGGUGAGGAUAUCUCCACUAAAGUGUGAAGAGAAGGCGCUACAUGAGGAUCACCCAUGUCUAUGGGCAG [Ex-6 Malc#15] (puzzle: Exclusion 6)	–	–	75 nM	–	apparent KD of MS2 coat protein [3]: 37.4 nM; apparent KD of MS2 coat protein [4]: 109 nM

Sequence	apparent KD of MS2 coat protein (input ligand: FMN 200 uM)	apparent KD of MS2 coat protein (input ligand: none)	apparent KD of MS2 coat protein [1]	apparent KD of MS2 coat protein [2]	other results
UCAUCCGUAGGAUAUAAGAAACACAACAUGAGGAUCACCCAUGUGACCGUCAGUUAUUGCUUAGAAGGACGCGUAC [Eternabot (L1) Solution 70] (Eterna round: R97, puzzle: Exclusion 5)	131 nM	91.2 nM	–	–	–
UCAUGGAAGCAGGAUAUGCUUGUUUAAUUGUUUGCAGAAGGGCUAACAUGAGGAUCACCCAUGUGAGAGGUCUA [JR_E6_Sub064] (puzzle: Exclusion 6)	–	–	33.8 nM	–	apparent KD of MS2 coat protein [3]: 20.5 nM; apparent KD of MS2 coat protein [4]: 36.7 nM
UCAUGGUAGCAGGAUAUGCUUGUUUUUUUUUUUGCAGAAGGGCUUACAUGAGGAUCACCCAUGUGAGAGGUCUA [JR_E6_Sub066] (puzzle: Exclusion 6)	–	–	19.9 nM	–	–
UCAUGGUUAGAGGAUAUAUAAUUAGUCAGAACAAUAGAAGGCUAGACAUGAGGAUCACCCAUGUAUGUUGAGGU [JR_Ex6_Sub065] (Eterna round: R97, puzzle: Exclusion 6)	42.6 nM	89.4 nM	–	–	–
UCCUCACAUGAGGAUCACCCAUGUUAGGAUAUCUCGGUGCCCUGCAGGCAGUGGCACCAGAGAAGGAACGUGCA [Querra] (puzzle: Exclusion 1)	–	–	18.8 nM	–	–
UCCUUACUGGUCAGGAUAUACAUUCGCGAGUGGGUGUAGAAGGGACAUGAGGAUCACCCAUGUACGUUACAUCC [alecazam54f] (Eterna round: R97, puzzle: Brourd's mod of Exclusion 4)	18.3 nM	20.5 nM	–	–	–
UCGACGUCGUCAGGAUAUAGUUUUAAUGUCAUGCUUUUGUUUUUACAUGAGGAUCACCCAUGUCGCUAGAAGGGACUAAAGAUU [JR_ExcNG2_Sub013] (Eterna round: R96, puzzle: Exclusion NG 2)	36.7 nM	41.7 nM	–	34.1 nM	–
UCGAGGUCAGGAUAUACAUGAGGAUCACCCAUGUUGAGAUAAGGUAGGAAAAGAGUAGGUAGAAGGGACGAGAG [JR_Exclu3_Sub047] (puzzle: Exclusion 3)	–	–	27.3 nM	–	–
UCGCGAAGAGGAUAUACAUAGAAAUAGAUUCAUGUAAAACUACAUGAGGAUCACCCAUGUAGAAGGCUUUGCGU [Mat - Exclusion 2 - JL Mod - D60] (Eterna round: R97, puzzle: Exclusion 2)	108 nM	17 nM	–	–	–
UCGCUCCGUGUAGGAUAUCGCUGUAUGAUGCGGCGAGAAGGACAUGAGGAUCACCCAUGUAUGUUAUUAUCACGCGUGGCGCAA [Design 64] (Eterna round: R96, puzzle: Exclusion NG 1)	21.8 nM	17.5 nM	–	11.6 nM	–
UCGGCGCGAGGAUAUACGUUUGCUUUUUGGGAUCGUUGCGUACAUGAGGAUCACCCAUGUAGAAGGCGCGCCGC [Apr-15 SS2-26] (puzzle: Exclusion 2)	–	–	15.9 nM	–	–
UCGGCGCGAGGAUAUGCGGCUGGUGCUUCGGGCUCUGGCGUACAUGAGGAUCACCCAUGUAGAAGGCGCGCCGC [Apr-15 SS2-42] (puzzle: Exclusion 2)	–	–	10.5 nM	–	–
UCGGUGUCAGGAUAUACAUGAGGAUCACCCAUGUAGAGAGAAGAUAGGGAAAGAGUAGGUAGAAGGGACGAGAG [JR_Exclu3_Sub045] (puzzle: Exclusion 3)	–	–	29.1 nM	–	apparent KD of MS2 coat protein [3]: 43.7 nM; apparent KD of MS2 coat protein [4]: 41.7 nM
UCUCAGUUAGGAUAUUUAAUGUGCCGUGAGGACACGCCUUUGAAGAAGGGACAUGAGGAUCACCCAUGUGAGUA [Eternabot (L2) Solution 44] (Eterna round: R97, puzzle: Exclusion 4)	47.3 nM	26.3 nM	–	–	–
UCUCGACAUGAGGAUCACCCAUGUCAGGAUAUUGUGUUUGAGGUUUUUUACCUUUUGACAAGAAGGGAUGUGUG [LRO-Excl1-22] (puzzle: Exclusion 1)	–	–	28.6 nM	–	–
UCUCGCGGGCAAGGAUAUCCUACGUUGUUCUGGCCCGUGUAUGUUACAUGAGGAUCACCCAUGUGGGAGAAGGUGCACCAGGGC [Design 39] (Eterna round: R96, puzzle: Exclusion NG 2)	72.8 nM	77.4 nM	–	43.8 nM	–
UCUUAGUCAGGAUAUACAUGAGGAUCACCCAUGUAAAAUUUUAAUUUAAUUUUAAGGUGUAGAAGGGACCACUU [Ex3 #19] (Eterna round: R97, puzzle: Exclusion 3)	22.2 nM	29 nM	–	–	–
